Values joined by “and” are separate entries in the source; they are usually repeats but may differ in a detail not shown here. Equal values may be shown once.
Target: α7/5HT3A chimaeric receptor (control, non-mutant)
Experiment: radioligand binding

125I-labelled α-bungarotoxin (from UniProt P60615 22-95) (natural protein)
Kd: 11.5 nM and 12.2 nM and 8.1 nM

— PMC3920732
